In patent JP2011512120A (dated 2011):

B1: EV1019 (antibody, V domains shown)
VH: QAQLVESGGGVVKPGGSLRLSCISSKFTFSSHAMHWVRQAPGKGLEWVAVIWHDGSKKYYADSVKGRFSVSRDNSKNTLFLQMDSLRAEDTAVYFCGKEWVGGTCDSWGQGTLVIVSS
VL: QPALTQEASVSGTVGQTVTLLCSGNSSNIGSYAVGWYQQISRGAPKIVVFGKSPASGIPDRFSGSKSGTTASLLVSGLQPEDEADYYCSTWDSRLSAVLFGGGTKLTVLR
B2: EV1018 (antibody, V domains shown)
VH: QVQLVESGGGMVQPGMPLRLSCVASGFTFSSYGMHWVRQAPGKGLEWVALTYHHGNRKFYADSVRGRFTISRDNSNNTLYLQMTSLRAEDTAVYFCARESMGAINDNWGQGTLVIVSS
VL: QSALTQETSVSGTVGQKVTLSCIGNNNNIGSHAVGWYQQISRGAPKMVLFGRSPPSGVPDRFSGSKSGTTASLIISGLQPEDEADYYCSTWDSSLSAVVFGGGTKLTVLR
B3: EV1007 (antibody, V domains shown)
VH: QVHLVQSGSELKKPGASVKVSCKASGYSFSRYGIKWVRQAPGQGLEWMGWINTRSGVPAYAQGFTGRFVFSLDTSVDTAFLEISSLKTEDTGIYYCATRPPRFYDKTEYWEDGFDVWGRGTLVTVSS
VL: QSVLTQPPSASGTPGQSVNISCSGSSSNIGNSYVYWYQQLPGTAPKLLIYRNNRRPSGVPDRFSGSKSDTSASLAISGLRSEDEADYYCATWDDSLSGRLFGGGTKLTVL
B4: EV1003 (antibody, V domains shown)
VH: LVQLVQSEAEVKKPGASVRISCRTSGYIFPTFALHWVRQAPGQSLEWVGSINTASGKTKFSTKFQDRLTLSSNTSATTVYMDLSGLTLDDTALYYCARDRFQNIMATILDVWGQGTLVTVSS
VL: DIVLTQSPGTLSLSPGERVTVSCRASHRVSSNYLAWYQQRPGQSPRLLIFGASNRATGVPDRFSGSGSGTDFALTISRLEPDDFAVYYCQQYASSPVTFGGGTKLEIK

The binders below were run against 大腸菌由来組換えhGM−CSF(Peprotech) (human) (assay: SPR (Biacore), antibody captured through protein G on the chip, rhGM-CSF injected).

Kd [nM] | Binder
0.15 | B1
0.15 | B2
0.93 | B3
0.095 | B4

What follows are binders tested against 酵母由来組換えhGM−CSF(Leukine Berlex) (human) in the same assay as above.

Kd [nM] | Binder
0.36 | B1
0.23 | B2
1.2 | B3
0.23 | B4
